For one substance, stoichiometry N results are on record in paper doi:10.1101/2022.03.14.484276.

What is called stoichiometry N is a count of units in the complex or per binding partner.

This assay has as its target BsaXI S subunit (specificity subunit), WT TRD1-CR1-TRD2-CR2 (Bacillus stearothermophilus 25B (Geobacillus sp. 25B)). Put plainly: co-purification through chromatography columns.

Consider “BsaXI RM subunit (restriction-modification fusion subunit) (enzyme)”, for which the stoichiometry N was 2 RM per S.
